{
  "source": "patent US20060142189A1",
  "about": "(MOUNT SINAI SCHOOL OF MEDICINE OF NEW YORK UNIVERSITY, published 2006)",
  "target": "ankyrin B (endogenous in ND-7 cells)",
  "test": "cell-based or functional assay",
  "note": "Ends that are not written are not given here. * marks the point of attachment. Biotin = O=C1N[C@H]2[C@H](CS[C@H]2CCCCC(=O)*)N1",
  "data": [
    {"binder": "Biotin-RQIKIWFQNRRMKWKKQFNEDGSFIGQF", "note": "[AP-YF peptide]", "values": [
      {"measurement": "velocity of L1-CAM directed movement on the cell surface, against cells treated with control peptide or untreated cells", "result": 2, "unit": "fold"}
    ]}
  ]
}
